Here are results for 1 molecule from publication PMC4975651 (Molecular cell, 2016).

As a reminder, the Kd is the concentration at which binding is half-saturated. A lower Kd goes with tighter binding.

The test has as its target ZMYND8-PBP (93-426aa) (human). Put plainly: ITC.

B1: H3K4me1K14ac peptide (peptide)
chain: ARTKQTARKSTGGKA
modifications: monomethyl-lysine at K4; acetyl-lysine at K14
In the case of B1, the Kd is roughly 5.4 µM.
